Publication doi:10.1101/2025.02.24.639257
Where two headings read alike, the source gives them in different places.

B1: human TTLL11 (tubulin tyrosine ligase-like 11), full length (enzyme)
chain: MRRGSSESELAARWEAEAVAAAKAAAKAEAEATAETVAEQVRVDAGAAGEPECKAGEEQPKVLAPAPAQPSAAEEGNTQVLQRPPPTLPPSKPKPVQGLCPHGKPRDKGRSCKRSSGHGSGENGSQRPVTVDSSKARTSLDALKISIRQLKWKEFPFGRRLPCDIYWHGVSFHDNDIFSGQVNKFPGMTEMVRKITLSRAVRTMQNLFPEEYNFYPRSWILPDEFQLFVAQVQMVKDDDPSWKPTFIVKPDGGCQGDGIYLIKDPSDIRLAGTLQSRPAVVQEYICKPLLIDKLKFDIRLYVLLKSLDPLEIYIAKDGLSRFCTEPYQEPTPKNLHRIFMHLTNYSLNIHSGNFIHSDSASTGSKRTFSSILCRLSSKGVDIKKVWSDIISVVIKTVIALTPELKVFYQSDIPTGRPGPTCFQILGFDILLMKNLKPILLEVNANPSMRIEHEHELSPGVFENVPSLVDEEVKVAVIRDTLRLMDPLKKKRENQSQQLEKPFAGKEDALDGELTSAPDCNANPEAHLPSICLKQVFPKYAKQFNYLRLVDRMANLFIRFLGIKGTMKLGPTGFRTFIRSCKLSSSSLSMAAVDILYIDITRRWNSMTLDQRDSGMCLQAFVEAFFFLAQRKFKMLPLHEQVASLIDLCEYHLSLLDEKRLVCGRGVPSGGRPPHRGPPQEPSPSAQPAGDNPPPRTSCANKLSHPRHTLS
modifications: Janelia 549-HALO probe on the HALO tag (in the TIRF assay)

Experiments:
Experiment in all cases: TIRF microscopy binding assay
[1] = target: porcine double-stabilized microtubules (dsMTs) (porcine) (UniProt P02550)
[2] = target: porcine double-stabilized microtubules (dsMTs) (porcine) (UniProt P02550); remark: listed apart in the source
[3] = target: AspN-treated double-stabilized microtubules (β-tubulin C-tail removed) (porcine) (UniProt P02550)

| Molecule | percent reduction of the fluorescence signal (against full-length TTLL11) [1] [%] | percent reduction of the fluorescence signal (against full-length TTLL11) [2] [%] | percent lower fluorescence signal than on intact MTs [3] [%] |
| --- | --- | --- | --- |
| human TTLL11 I594W mutant (from UniProt Q8NHH1 1-710) (enzyme) | 95 | 80 |  |
| human TTLL11 R601E mutant (from UniProt Q8NHH1 1-710) (enzyme) |  | 60 |  |
| B1 |  |  | 50 |
